The target of this test is T1, PD-L1 on MC38 cell surfaces (Mus musculus, UniProt Q9EP73).
T1 construct: endogenous in cells; host or cells: MC38 cells
As to the kind of experiment: FACS detection of antigen-binding capacity on PD-L1 positive MC38 cells (FITC secondary antibody). The protocol: MC38 cells were treated with anti-PD-L1 antibody, anti-PD-L1 THIOMAB and ADC HE-S2, and then stained with FITC-labeled goat anti-human secondary antibody; the FITC signal intensity on MC38 surfaces was analyzed by FACS technique detection. A. The histograms of different colors represent, from top to bottom, the fluorescence signals measured for the negative control (NC) group, the secondary antibody group, the anti-PD-L1 antibody group, the anti-PD-L1 THIOMAB group, and the ADC HE-S2 group, respectively. B. Mean fluorescence intensity (MFI) measured after treatment with different antibody-based drugs on MC38. NC group: the negative control only added with the isotype antibody, with no secondary antibody added for staining; secondary antibody group: the control group added with the isotype antibody and stained with fluorescent secondary antibody. […]
With PD-L1 positive MC38 as a platform, the inventors verified whether ADC HE-S2 and the gene-modified anti-PD-L1 THIOMAB retained the original antibody-antigen binding capacity by using a fluorescence activated cell sorting (FACS) technique. […] The stained MC38 cells were analyzed on a BD FACSAria™ III flow cytometer, and the strength of FITC fluorescence signals on MC38 cells treated with different antibody-based drugs was detected and compared, so as to characterize the affinity of ADC, THIOMAB and antibodies to PD-L1.

The text below walks through data of patent US20240252670A1, “ANTIBODY DRUG CONJUGATE, PREPARATION METHOD THEREFOR AND APPLICATION THEREOF” (TSINGHUA UNIVERSITY, priority 2021, published 2024).

T1 sequence (Q9EP73 19-290): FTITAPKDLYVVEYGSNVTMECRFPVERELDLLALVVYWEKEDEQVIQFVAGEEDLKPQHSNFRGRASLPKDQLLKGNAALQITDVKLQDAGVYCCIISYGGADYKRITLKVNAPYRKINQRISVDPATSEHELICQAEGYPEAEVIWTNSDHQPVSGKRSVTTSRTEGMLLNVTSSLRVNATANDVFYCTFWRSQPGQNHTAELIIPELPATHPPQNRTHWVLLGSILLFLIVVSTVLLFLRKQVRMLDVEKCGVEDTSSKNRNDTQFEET

With “anti-PD-L1 THIOMAB: mutant avelumab, light chain V205C (SEQ ID NO: 9), heavy chain SEQ ID NO: 4; pHrodo red labeled in internalization tests”, the “MFI compared with the natural anti-PD-L1 antibody (Student's t test)” value is “no significant difference”.
